T1: human GITR-Fc (human, UniProt Q9Y5U5 26-162)
T1 construct: also called recombinant hGITR; wild type human GITR-Fc
T1 sequence: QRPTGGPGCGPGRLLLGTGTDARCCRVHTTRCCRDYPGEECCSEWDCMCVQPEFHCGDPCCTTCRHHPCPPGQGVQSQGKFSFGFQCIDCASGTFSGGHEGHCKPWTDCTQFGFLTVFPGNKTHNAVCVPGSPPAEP

T2: cyno GITR-Fc (cynomolgus monkey)
T2 construct: also called cGITR; cynomolgus GITR
T2 chain: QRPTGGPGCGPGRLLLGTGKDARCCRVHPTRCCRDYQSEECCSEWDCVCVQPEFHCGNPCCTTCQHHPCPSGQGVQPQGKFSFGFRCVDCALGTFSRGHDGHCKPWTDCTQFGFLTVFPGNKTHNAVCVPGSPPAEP

T3: cynomolgus monkey GITR expressed on HT1080 cells (cynomolgus monkey)
T3 chain: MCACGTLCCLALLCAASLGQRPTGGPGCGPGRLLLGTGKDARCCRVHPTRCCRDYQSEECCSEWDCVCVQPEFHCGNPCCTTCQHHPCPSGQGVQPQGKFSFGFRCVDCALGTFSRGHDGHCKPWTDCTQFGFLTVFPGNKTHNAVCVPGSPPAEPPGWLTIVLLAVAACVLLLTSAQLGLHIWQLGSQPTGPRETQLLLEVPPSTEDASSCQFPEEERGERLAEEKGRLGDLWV

T4: human GITR expressed on cells (human, UniProt Q9Y5U5 26-241)
T4 sequence: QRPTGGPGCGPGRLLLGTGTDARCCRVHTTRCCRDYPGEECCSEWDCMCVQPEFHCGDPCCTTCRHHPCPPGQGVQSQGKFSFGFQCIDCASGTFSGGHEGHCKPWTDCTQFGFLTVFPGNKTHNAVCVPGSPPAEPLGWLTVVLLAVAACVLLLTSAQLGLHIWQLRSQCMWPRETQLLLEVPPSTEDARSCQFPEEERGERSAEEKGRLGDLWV


Key:
human GITR-Fc = target: T1, human GITR-Fc; assay: BLI Octet RED384, ABP on AHQ sensor, 100 nM antigen, single concentration;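 also: association and dissociation each tracked over 180 s, with dissociation run in antigen-free buffer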
Protocol: (§1) The sensors were quenched by dipping into an unrelated human IgG1 antibody to prevent non-specific binding of GITR-Fc antigens to the sensor. The sensors were equilibrated in assay buffer for 30 minutes. Baseline was established by dipping the sensors into assay buffer for 60 seconds. Association was monitored for 180 seconds in 100 nM of recombinant antigens, and dissociation was followed for 180 seconds in buffer alone. KD was determined using the kinetic function of the FORTEBIO® Analysis Software using a 1:1 binding model.

cyno GITR-Fc = target: T2, cyno GITR-Fc; assay: as above
Protocol: as §1

[1] = target: T3, cynomolgus monkey GITR expressed on …; assay: cell-based or functional assay
[2] = target: T4, human GITR expressed on cells; assay: cell-based or functional assay
[3] = target: T3, cynomolgus monkey GITR expressed on …; assay: cell-based or functional assay
[4] = target: T4, human GITR expressed on cells; assay: cell-based or functional assay; remark: listed apart in the source
[5] = target: T4, human GITR expressed on cells; assay: cell-based or functional assay; remark: listed apart in the source

Binder | Kd (human GITR-Fc) | Kd (cyno GITR-Fc) | EC50 in cynomolgus HT1080 (IL-8 induction) [1] | EC50 in human HT1080 (IL-8 induction) [2] | Average EC50 in cynomolgus HT1080 (IL-8 induction) [3] | Average EC50 in human HT1080 (IL-8 induction) [4] | EC50 in human HT1080 (IL-8 induction), n = 2 [5] | binding result (cyno GITR-Fc)
ABP11 (antibody, human IgG1, kappa, N297A, V domains shown) VH: QVQLVQSGAEVKRPGSSVKVSCKASGGTFSSYYISWVRQVPGQGLEWMGGIIPVPGTANYAQKFQGRVTITADESTSTAYMELSSLRSEDTAVYYCARAGGGYARGDHYYGMDVWGQGTTVTVSS VL: not shown | 3.1 nM | 8.5 nM | 21.6 nM | 3.9 nM |  |  |  | 
ABP12 (antibody, human IgG1, kappa, N297A, V domains shown) VH: QVQLVQSGAEVKKPGSSVKVSCKASGGTFSSYYISWVRQAPGQRLEWMGGIIPVPGTANYAQKFQGRVTITADESTSTAYMELSSLRSEDTAVYYCARAGGGYARGDHYYGMDVWGQGTTVTVSS VL: not shown | 2.8 nM | 7.9 nM | 28.4 nM | 3.5 nM |  |  |  | 
ABP39 (antibody, human IgG1, kappa, N297A, V domains shown, IgG1 N297A, bivalent; also called non-TM ABP corresponding to ABP6) VH: QVQLQESGPGLVKPSETLSLTCAVSGYSISSGAGWGWIRQPPGKGLEWIGLIVHSGSTYYNPSLKSRVTISVDTSKNQFSLKLSSVTAADTAVYYCVLESVRGYGDYGGHHAFDIWGQGTMVTVSS VL: DIQMTQSPSSLSASVGDRVTITCRASQSISSYLNWYQQKPGKAPKLLIYAADSLQSGVPSRFSGSGSGTDFTLTISSLQPEDFATYYCQQEYNTPPTFGGGTKVEIKR | 0.7 nM | 8.2 nM |  |  | 2.3 nM | 0.44 nM |  | 
ABP35 (antibody, human IgG1, kappa, N297A, V domains shown, IgG1 N297A, standard bivalent format; also called ABP35 IgG1; non-TM ABP corresponding to ABP1) VH: QVQLQESGPGLVKPSETLSLTCAVSGYSISSGLGWGWIRQPPGKGLEWIGGIYESGSTYYNPSLKSRVTISVDTSKNQFSLKLSSVTAADTAVYYCAHERVRGYGDYGGHHAFDIWGQGTMVTVSS VL: not shown | 1.5 nM | 5.7 nM |  |  | 2 nM | 0.88 nM |  | 
ABP37 (antibody, human IgG1, kappa, N297A, V domains shown, IgG1 N297A, bivalent; also called non-TM ABP corresponding to ABP3) VH: QVQLQESGPGLVKPSETLSLTCAVSGYSISSGAGWGWIRQPPGKGLEWIGLIVHSGSTYYNPSLKSRVTISVDTSKNQFSLKLSSVTAADTAVYYCVLESVRGYGDYGGHHAFDIWGQGTMVTVSS VL: DIQMTQSPSSLSASVGDRVTITCRASQSISSYLNWYQQKPGKAPKLLIYAASSLKYGVPSRFSGSGSGTDFTLTISSLQPEDFATYYCQQEYNTPPTFGGGTKVEIKR | 0.7 nM | 8.1 nM |  |  | 1.7 nM | 0.19 nM |  | 
ABP36 (antibody, human IgG1, kappa, N297A, V domains shown, IgG1 N297A, bivalent; also called non-TM ABP corresponding to ABP2) VH: QVQLQESGPGLVKPSQTLSLTCTVSGGSISSGGAVWSWIRQHPGKGLEWIGGIAYSGSTYYNPSLKSRVTISVDTSKNQFSLKLSSVTAADTAVYYCADENVRGYGDYGGHHAFDIWGQGTMVTVSS VL: not shown | 1.4 nM | 7.5 nM |  |  | 8.8 nM | 0.58 nM |  | 
ABP14 (antibody, human IgG1, kappa, N297A, V domains shown) VH: QVQLVQSGAEVKKPGSSVKVSCKASGGTFSSYAISWVRQAPGQGLEWMGGIIPISGFTNYAQKFQGRVTITADESTSTAYMELSSLRSEDTAVYYCAREGGHYYSGWPYWGQGTLVTVSS VL: EIVLTQSPATLSLSPGERATLSCRASQSVSSYLAWYQQKPGQAPRLLIYDASNRATGIPARFSGSGSGTDFTLTISSLEPEDFAVYYCQQRLVFPPTFGGGTKVEIKR | 2.8 nM | 5.9 nM | 4.1 nM | 0.6 nM |  |  |  | 
ABP16 (antibody, human IgG1, kappa, N297A, V domains shown) VH: QVQLVQSGAEVKKPGSSVKVSCKASGGTFSSYAISWVRQAPGQGLEWMGGIIPISGFTNYAQKFQGKVTITADESTSTAYMELSSLRSEDTAVYYCAREGGHYYSGWPYWGQGTLVTVSS VL: EIVLTQSPATLSLSPGERATLSCRASQSVSSYLAWYQQKPGQAPRLLIYDASNRATGIPARFSGSGSGTDFTLTISSLEPEDFAVYYCQQRLVFPPTFGGGTKVEIKR | 2.9 nM | 5.4 nM | 3.8 nM | 0.6 nM |  |  |  | 

Continued by falling Kd (human GITR-Fc), values first:

Kd (human GITR-Fc) | Kd (cyno GITR-Fc) | EC50 in cynomolgus HT1080 (IL-8 induction) [1] | EC50 in human HT1080 (IL-8 induction) [2] | Average EC50 in cynomolgus HT1080 (IL-8 induction) [3] | Average EC50 in human HT1080 (IL-8 induction) [4] | EC50 in human HT1080 (IL-8 induction), n = 2 [5] | binding result (cyno GITR-Fc) | Binder
14.8 nM |  |  |  |  |  | 0.8 nM | no binding (tested: 100 nM) | ABP48 (antibody, human IgG1, kappa, N297A, V domains shown, IgG1 N297A, H1H2-optimized, non-TM) VH: QVQLQESGPGLVKPSETLSLTCAVSGYSISSEYMWGWIRQPPGKGLEWIGLIYHSGKTYYNPSLKSRVTISVDTSKNQFSLKLSSVTAADTAVYYCARDSGRGYGDYGGHHAFDIWGQGTMVTVSS VL: not shown
5.5 nM | 6.4 nM | 15 nM | 7.8 nM |  |  |  |  | ABP13 (antibody, human IgG1, kappa, N297A, V domains shown) VH: QVQLVQSGAEVKKPGSSVKVSCKASGGTFSRGAISWVRQAPGQGLEWMGGIIPIEGTAYYAQKFQGRVTITADESTGTAYMELSSLRSEDTAVYYCARQSDYGLPRGMDVWGQGTTVTVSS VL: DIQLTQSPSSVSASVGDRVTITCRASQGISSWLAWYQQKPGKAPKLLIYGASSLQSGVPSRFSGSGSGTDFTLTISSLQPEDFATYYCQQASLFPPTFGGGTKVEIKR
4.2 nM | 4.6 nM | 8.4 nM | 5.3 nM |  |  |  |  | ABP17 (antibody, human IgG1, kappa, N297A, V domains shown) VH: QVQLVQSGAEVKKPGSSVKVSCKASGGTFVRYAISWVRQAPGQGLEWMGGIIPIFGEAQYAQRFQGRVTITADESTSTAYMELSSLRSEDTAVYYCAREGYYYGALPYWGQGTLVTVSS VL: EIVLTQSPATLSLSPGERATLSCRASQSVSSYLAWYQQKPGQAPRLLIYDASNRATGIPARFSGSGSGTDFTLTISSLEPEDFAVYYCQQHSVFPPTFGGGTKVEIKR
4 nM | 8.4 nM | 13.2 nM | 2.1 nM |  |  |  |  | ABP18 (antibody, human IgG1, kappa, N297A, V domains shown) VH: QVQLVQSGAEVKKPGSSVKVSCKASGGTFVRYAISWVRQAPGQGLEWMGGIIPIFGEAQYAQKFRGRATITADESTSTAYMELSSLRSEDTAVYYCAREGYYYGALPYWGQGTLVTVSS VL: EIVLTQSPATLSLSPGERATLSCRASQSVSSYLAWYQQKPGQAPRLLIYDASNRATGIPARFSGSGSGTDFTLTISSLEPEDFAVYYCQQHSVFPPTFGGGTKVEIKR
3.3 nM | 5.2 nM | 4.5 nM | 0.6 nM |  |  |  |  | ABP15 (antibody, human IgG1, kappa, N297A, V domains shown) VH: QVQLVQSGAEVKKPGSSVKVSCKASGGTFSSYAISWVRQAPGQRLEWMGGIIPISGFTNYAQKFQGRVTITADESTSTAYMELSSLRSEDTAVYYCAREGGHYYSGWPYWGQGTLVTVSS VL: EIVLTQSPATLSLSPGERATLSCRASQSVSSYLAWYQQKPGQAPRLLIYDASNRATGIPARFSGSGSGTDFTLTISSLEPEDFAVYYCQQRLVFPPTFGGGTKVEIKR
2.3 nM | 6.9 nM |  |  | 2 nM | 0.44 nM |  |  | ABP41 (antibody, human IgG1, kappa, N297A, V domains shown, IgG1 N297A, bivalent; also called non-TM ABP corresponding to ABP8) VH: QVQLQESGPGLVKPSETLSLTCAVSGYSISSEYMWGWIRQPPGKGLEWIGLIYHSGKTYYNPSLKSRVTISVDTSKNQFSLKLSSVTAADTAVYYCAREADRGYGDYGGHHAFDIWGQGTMVTVSS VL: DIQMTQSPSSLSASVGDRVTITCGASQSISTYLNWYQQKPGKAPKLLIYSASSLESGVPSRFSGSGSGTDFTLTISSLQPEDFATYYCQQEYNTPPSFGGGTKVEIKR
2.2 nM | 4.9 nM |  |  | 1.1 nM | 0.34 nM |  |  | ABP40 (antibody, human IgG1, kappa, N297A, V domains shown, IgG1 N297A, bivalent; also called non-TM ABP corresponding to ABP7) VH: QVQLQESGPGLVKPSETLSLTCAVSGYSISSEYMWGWIRQPPGKGLEWIGLIYHSGKTYYNPSLKSRVTISVDTSKNQFSLKLSSVTAADTAVYYCAREADRGYGDYGGHHAFDIWGQGTMVTVSS VL: DIQMTQSPSSLSASVGDRVTITCRASQSINSYLNWYQQKPGKAPKLLIYAASSLDSGVPSRFSGSGSGTDFTLTISSLQPEDFATYYCQQEYNTPPTFGGGTKVEIKR
0.6 nM | 11.1 nM |  |  | 14.3 nM | 0.33 nM |  |  | ABP38 (antibody, human IgG1, kappa, N297A, V domains shown, IgG1 N297A, bivalent; also called non-TM ABP corresponding to ABP4/5) VH: QVQLQESGPGLVKPSETLSLTCAVSGYSISSGAGWGWIRQPPGKGPEWIGLIVHSGSTYYNPSLKSRVTISVDTSKNQFSLKLSSVTAADTAVYYCVLESVRGYGDYGGHHAFDIWGQGTMVTVSS VL: DIQMTQSPSSLSASVGDRVTITCRASKSIDSYLNWYQQKPGKAPKLLIYAASSLQSGVPSRFSGSGSGTDFTLTISSLQPEDFATYYCQQEYNTPPTFGGGTKVEIKR
